Measurements: PMC12006300 (Nature Communications, 2025)

Target: T1, Recombinant human PDZD8 (1, 28–)—FLAG (human, UniProt Q8NEN9 1-1154, (1, 28–), ∆TM)
T1 sequence (looked up): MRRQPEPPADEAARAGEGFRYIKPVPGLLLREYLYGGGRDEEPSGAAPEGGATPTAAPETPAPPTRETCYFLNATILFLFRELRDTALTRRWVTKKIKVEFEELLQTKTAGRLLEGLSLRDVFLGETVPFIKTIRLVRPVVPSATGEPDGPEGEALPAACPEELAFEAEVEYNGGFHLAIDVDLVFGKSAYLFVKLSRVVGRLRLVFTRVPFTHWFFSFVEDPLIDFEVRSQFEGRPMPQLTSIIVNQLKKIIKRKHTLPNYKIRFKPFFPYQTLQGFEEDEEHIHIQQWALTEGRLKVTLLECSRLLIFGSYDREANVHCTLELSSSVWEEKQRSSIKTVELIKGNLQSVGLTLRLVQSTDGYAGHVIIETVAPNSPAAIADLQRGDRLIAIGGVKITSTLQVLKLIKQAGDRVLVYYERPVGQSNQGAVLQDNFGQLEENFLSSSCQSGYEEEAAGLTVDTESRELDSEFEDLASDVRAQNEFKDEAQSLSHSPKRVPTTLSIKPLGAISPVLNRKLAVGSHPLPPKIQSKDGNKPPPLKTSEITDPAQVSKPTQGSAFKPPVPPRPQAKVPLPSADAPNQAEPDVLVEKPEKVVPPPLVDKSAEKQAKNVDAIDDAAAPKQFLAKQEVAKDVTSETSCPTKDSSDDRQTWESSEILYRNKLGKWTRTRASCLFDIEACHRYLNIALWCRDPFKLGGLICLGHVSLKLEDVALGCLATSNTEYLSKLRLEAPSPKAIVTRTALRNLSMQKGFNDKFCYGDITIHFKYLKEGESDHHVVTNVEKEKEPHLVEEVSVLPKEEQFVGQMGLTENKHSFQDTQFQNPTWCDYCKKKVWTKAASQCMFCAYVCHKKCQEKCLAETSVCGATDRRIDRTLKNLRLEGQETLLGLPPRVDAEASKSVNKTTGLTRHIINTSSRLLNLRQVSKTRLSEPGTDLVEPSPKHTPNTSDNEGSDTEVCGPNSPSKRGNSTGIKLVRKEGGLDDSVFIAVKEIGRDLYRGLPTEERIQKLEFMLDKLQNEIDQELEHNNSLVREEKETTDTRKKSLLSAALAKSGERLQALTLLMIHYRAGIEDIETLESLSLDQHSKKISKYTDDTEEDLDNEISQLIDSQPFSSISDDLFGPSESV
Experiment: SPR

B1: Recombinant human FKBP8 (1–380)—Histag (domain or fragment, UniProt Q14318 1-380, looked up)
chain: MASCAEPSEPSAPLPAGVPPLEDFEVLDGVEDAEGEEEEEEEEEEEDDLSELPPLEDMGQPPAEEAEQPGALAREFLAAMEPEPAPAPAPEEWLDILGNGLLRKKTLVPGPPGSSRPVKGQVVTVHLQTSLENGTRVQEEPELVFTLGDCDVIQALDLSVPLMDVGETAMVTADSKYCYGPQGRSPYIPPHAALCLEVTLKTAVDGPDLEMLTGQERVALANRKRECGNAHYQRADFVLAANSYDLAIKAITSSAKVDMTFEEEAQLLQLKVKCLNNLAASQLKLDHYRAALRSCSLVLEHQPDNIKALFRKGKVLAQQGEYSEAIPILRAALKLEPSNKTIHAELSKLVKKHAAQRSTETALYRKMLGNPSRLPAKCPG
- Kd: 142 µM
